Measured values published in article PMC8633249.
pKd: −log10 of the molar value.

Experiments:
[1] = target: PAM_(NS88.2), plasminogen-binding Group A streptococcal M-protein from GAS isolate NS88.2 (Streptococcus pyogenes (GAS isolate NS88.2)); experiment: AUC; apo-PAM_(NS88.2), sedimentation equilibrium at two rotor speeds (<0.2 mg/ml) and sedimentation velocity (6 µM); 50 mM sodium phosphate/100 mM NaCl, pH 7.4; 4°C, 15°C and 25°C
[2] = target: PAM_(NS88.2), plasminogen-binding Group A streptococcal M-protein from GAS isolate NS88.2 (Streptococcus pyogenes (GAS isolate NS88.2)); experiment: ITC; K2hPg (syringe) titrated into PAM_(NS88.2) (6 µM as monomer, cell); 50 mM sodium phosphate/100 mM NaCl, pH 7.4; 25°C; only the final inflection fitted, hetero-association model A + B (Sedphat)
[3] = target: PAM_(NS88.2), plasminogen-binding Group A streptococcal M-protein from GAS isolate NS88.2 (Streptococcus pyogenes (GAS isolate NS88.2)); experiment: AUC; sedimentation equilibrium of the K2hPg/PAM_(NS88.2) complex isolated by gel filtration, at the temperature of its isolation (4°C, 25°C, 37°C); 50 mM sodium phosphate/100 mM NaCl, pH 7.4
[4] = target: AGL55, 55-mer A-domain peptide of PAM_(NS88.2) (Streptococcus pyogenes (GAS isolate NS88.2)); experiment: ITC; K2hPg (syringe) titrated into AGL55 (30 µM, cell); 50 mM sodium phosphate/100 mM NaCl, pH 7.4; 25°C; hetero-association model A + B (Sedphat)
[5] = target: AGL55, 55-mer A-domain peptide of PAM_(NS88.2) (Streptococcus pyogenes (GAS isolate NS88.2)); experiment: ITC; K2hPg (syringe) titrated into AGL55 (30 µM, cell); 50 mM sodium phosphate/100 mM NaCl, pH 7.4; 37°C; hetero-association model A + B (Sedphat)
[6] = target: AGL55, 55-mer A-domain peptide of PAM_(NS88.2) (Streptococcus pyogenes (GAS isolate NS88.2)); experiment: ITC; K2hPg (syringe) titrated into AGL55 (30 µM, cell); 50 mM sodium phosphate/100 mM NaCl, pH 7.4; 4°C; hetero-association model A + B (Sedphat)
[7] = target: PAM_(NS88.2), plasminogen-binding Group A streptococcal M-protein from GAS isolate NS88.2 (Streptococcus pyogenes (GAS isolate NS88.2)); experiment: ITC; K2hPg (syringe) titrated into PAM_(NS88.2) (6 µM as monomer, cell); 50 mM sodium phosphate/100 mM NaCl, pH 7.4; 4°C; hetero-association model of K2hPg and PAM monomer (Sedphat)
[8] = target: PAM_(NS88.2), plasminogen-binding Group A streptococcal M-protein from GAS isolate NS88.2 (Streptococcus pyogenes (GAS isolate NS88.2)); experiment: ITC; K2hPg (syringe) titrated into PAM_(NS88.2) (6 µM as monomer, cell); 50 mM sodium phosphate/100 mM NaCl, pH 7.4; 37°C; hetero-association model (Sedphat)
[9] = target: AGL55, 55-mer A-domain peptide of PAM_(NS88.2) (Streptococcus pyogenes (GAS isolate NS88.2)); experiment: SEC-MALS; K2hPg/AGL55 mixture on a Wyatt 030S5 column, UV, RI and MALS detection, protein conjugate analysis; 50 mM Na-phosphate/100 mM NaCl, pH 7.4; 25°C

| Substance | stoichiometry N [1] | pKd [2] | stoichiometry N [3] | stoichiometry N [4] | stoichiometry N [5] | stoichiometry N [6] | pKd [7] | dH [7] | pKd [8] | dH [8] | stoichiometry N [9] |
| --- | --- | --- | --- | --- | --- | --- | --- | --- | --- | --- | --- |
| PAM_(NS88.2), plasminogen-binding Group A streptococcal M-protein from GAS isolate NS88.2 (natural protein) | 2 |  |  |  |  |  |  |  |  |  |  |
| K2hPg, kringle-2 domain of human plasminogen (from UniProt P00747 183-262) (domain or fragment) |  | 8.57 | 1 m:m | 1 m:m | 1 m:m | 1 m:m | 9.15 | -13.7 kcal/mol | 6.74 | -37 kcal/mol | 1 m:m |
